The values below come from patent US12709641B2.

The labels stand for the following.
B1: V0052 (antibody, V domains shown)
VH: not shown
VL: SIVMTQTPKFLLVSAGDRVTITCKASQSVSNDVAWYQQKPGQSPKLLIYYASNRCTGVPDRFTGSGYGTDFTFTISTVQAEDLAVYFCQQDYRSPLTFGAGTKLELK
B2: V0050 (antibody, V domains shown)
VH: EVQLQQSGPELVKPGASVKIPCRASGYTFTDYNMDWVKQSHGKTLEWIGDINPNNGGTIYNQKFKGKATLTVDKSSSTAYMELRSLTSEDTAVYYCARGRGMGYYALDYWGQGTSVTVSS
VL: DIQMTQSPASLSASVGETVTFTCGASENVYGALNWYQRKQGKSPQLLIYGATNLADGMSSRFSGSGSGRQYSLKISSLHPDDVATYYCQNVLTIPWTFGGGAKLEIK
B3: V0027 (antibody, V domains shown)
VH: QVQLQQSGPELVKPGASVKISCKASGYTFTEYYLNWMKQRPGQGLEWIGWIFPGRGSTNYNEKFKGKATLTVDKSSSTAYMLLSSLTSEDSAVYFCARPTIVARDYAMDYWGQGTSVTVSS
VL: DVLMTQTPLSLPVSLGDQASISCRSSQSIVHRNGNTYLEWYLQKPGQSPKLLIYKVSNRFSGVPDRFSGSGSGTDFTLKISRVEAEDLGVYYCFQGSHVPFTFGSGTKLEIK
B4: V0032 (antibody, V domains shown)
VH: QVQLKQSGAELVRPGASVKLSCKTSGYTFTDYYIKWVKQRPGQGLEWIARIYPGSGNTYYNEKFKGKATLTAEKSSSTAYMQLSSLTSEDSAVYFCARPAYYSKDYAMEYWGQGTSVTVSS
VL: DVLMTQTPLSLPVSLGDQASISCRSSQSIVYTNGNTYLEWYLQKPGQSPKLLIYKVSNRFSGVPDRFSGSGSGTDFTLKISRVEAEDLGVYYCFQGSHVPYTFGGGTKLEIK
B5: V0031 (antibody, V domains shown)
VH: QVQLQQPGTELVKPGASVKLSCKASGYTFTSYWMHWVKQRPGQGLEWIGNIYPSNGGTYYNEKFKSKATLTVDKSSSTAYMQLSSLTSEDSAVYYCARSSVVGRDYAMDYWGQGTSVTVSS
VL: DVLMTQTPLSLPVSLGDQASIACRSSQSIVHSNGNTYLEWYLQKPGQSPELLIYKVSNRFSGVPDRFSGSGSGTDFTLKISRVEAEDLGVYYCFQGSHVPYTFGGGTKLEIK
B6: V0058 (antibody, V domains shown)
VH: not shown
VL: DIVMTQSPSSLSVSAGEKVTMSCKSSQSLLSSGNQKNYLAWYQQKPGQPPKLLIYGASTRESGVPDRFTGSGSGTDFTLTISSVQAEDLAVYYCQNDHSHPYTFGGGTKLEIK
B7: V0055 (antibody, V domains shown)
VH: not shown
VL: DIVMTQSPSSLSVSAGEKVTMSCKSSQSLLNSGNQKNYLAWYQQKPGQPPKLLIYGASTRESGVPDRFTGSGSGTDFTLTISSVQAEDLAVYYCQNDHSHPYTFGGGTKLEIK
B8: V0054 (antibody, V domains shown)
VH: not shown
VL: DIVMTQSPSSLSVSAGEKVTMSCKSSQSLLNSGNQKNYLAWYQQKPGQPPKLLIYGTSTRESGVPDRFTGSGSGTDFTLTISSVQAEDLAVYYCQNDHSHPYTFGGGTKLEIK
B9: V0057 (antibody, V domains shown)
VH: not shown
VL: DIVMTQSPSSLSVSAGEKVTMSCKSSQSLLNSGNQKNYLAWYQQKPGQPPKLLIYGASTRESGVPDRFTGSGSGTDFTLTISSVQAEDLAVYYCQNDHSHPYTFGGGTKLEIK
B10: V0021 (antibody, V domains shown)
VH: QVQLQQPGIELVKTGASVKLSCKASGYTFTSNWMHWLKQRPGQGLEWIGNINPNNSETNYNEKFRKKATLTVDKSSSAAYMQLISLTSEDSAVYYCARANYYGGSQFAYWGQGTLVTVSA
VL: DVVMTQTPLSLCVSLGDQASISCRSSQSLVHSNGKTYLHWYLQKPGQSPNLLIYKVSNRFSGVPDRFSGSGSGTDFTLKISRVEAEDLGVYFCSQSTHVPFTFGSGTKLEIK
B11: V0020 (antibody, V domains shown)
VH: QVQLQQPGTDLVKPGASVKLSCKASGYTFTSYWMHWLKQRPGQGLEWIGNINPNNSDANYNEKFKSKATLTVDKSSSAAYMQLISLTSEDSAVYYCARANYYGGSQFAYWGQGTLVTVSA
VL: DVVVTQTPLSLPVSLGDQASISCRSSQSLVHSNGKTYLHWYLQKPGQSPNLLIYKVSNRFSGVPDRFSGSGSGTDFTLKISRVEAEDLGVYFCSQSTHVPFTFGSGTKLEIK
B12: V0024 (antibody, V domains shown)
VH: QVQLQQPGTELVKPGASVKLSCKASGYTFTRFWMHWVKQRPGQGLEWIGNINPNNGGTDNNERFKSKATLTVDRSSSTAYMQLSSLTSEDSAVYYCARGTGTGAMDYWGQGTSVTVSS
VL: DVVMTQTPLSLPVSLGDQASISCRSSQSLVHSNGNTHLYWYLQKPGQSPKLLIYRVSSRFSGVPDRFSGSGSGTDFTLKISRVEAEDLGVYFCFQGTHVPRTFGGGTKLEIK
B13: V0022 (antibody, V domains shown)
VH: QVQLQQPGTELVKPGSSVNLSCKASGFTFTRYWMHWVKERPGHGLEWIGNINPNNGGTDFNEKFKNKATLTVHKSSTTVFIQLSSLTSEDSAVYYCARGTGTGAMDYWGQGTSVTVSS
VL: DVVMTQTPLSLPVSLGDQASISCRSSQSLVHNNGITYLYWYLQKPGQSPKLLIYRVSNRFSGVPDRFGGSGSGTDFTLKISRVEAEDLGVYFCFQGTHVPRTFGGGTKLEIK
B14: V0026 (antibody, V domains shown)
VH: QVQLQQSGPELVKPGASVKISCKASGYSFTDYYINWVKQRPGQGLEWIGWIFPGSDSTYYNEKFKGKATLTVDKSSSTASMLLSSLTSEDSAVYFCARPTVVARDYAMDYWGQGTSVTVSS
VL: DVLMTQTPLSLPVSLGDQASISCRSSQSIVYSNGNTYLEWYLQKPGQSPKLLIYKVSNRFSGVPDRFSGSGSGTDFTLKISRVEAEDLGVYYCFQGSHVPYTFGGGTKLEIK
B15: V0023 (antibody, V domains shown)
VH: QVQLQQPGTELVKPGASVKLSCKASGYTFTIFWMHWVKQRPGHGLEWIGKINPNNGGGDYNEKFKSKATLTVDKSSTTAYLQLSSLTSEDSAVYYCARGTGTGAMDYWGQGTSVTVSS
VL: DVVMTQTPLSLPVSLGDHASISCRSSQSLVHSNGITHLYWYLQRPGQTPKLLIYRVSNRFSGVPDRFSGSGSGTDFTLKISSVEAEDLGVYFCFQGTHVPRTFGGGTKLEIE
B16: V0004 (antibody, V domains shown)
VH: QVQLQQPGAELVKPGASVKLSCKASDYTFTNYWMHWVKQRPGRGLEWIGRIDPNSGGTRYNEKFKNKATLTVDKPSSTAYMHLSSLTSEDSAVYYCAGDFDVWGTGTTVTVSS
VL: DIQMTQSPASLSASVGETVTITCRASGNIHNYLAWYQQRQGKSPQLLVYNAKTLPDGVPSRFSGSGSGTQYSLKINSLQPEDFGSYCCQHFWSTPLTFGAGTKLELK
B17: V00016 (antibody, V domains shown)
VH: EVQLQQSGAELVKPGASVKLSCTASGFNIKDYYIHWVKQRTEQGLEWIGRIDPEDGETKYAPKFQGKATIAADTSSNTAYLHLNSLTSEDTAVYYCAREFSYAMDYWGQGTSVTVSS
VL: NIMMTQSPSSLAVSAGEKVTMSCKSSQSVLYSSNQKNYLAWYQQKPGQSPKLLIYWASTRESGVPDRFTGSGSGTDFTLTISSVQAEDLAVYYCHQYLSSRTFGGGTKLEIK

In one assay the target is wild type tau (Homo sapiens (Human)), P10636. The assay is described as follows: Octet. The settings on record: remark: other sources report otherwise.
In the case of B1, the Kd (usually the equilibrium constant for the complex coming apart) was more than 200 nM.
Same read-out and setting: for B2 the value was more than 200 nM.
On the same count and under the same terms, then B3, with more than 200 nM; and B4, with more than 200 nM; and B5, with more than 200 nM.
Same read-out and setting: then B6, with more than 200 nM; and B7, with more than 200 nM; and B8, with more than 200 nM.
For the molecule B9, the Kd was more than 200 nM.
Still for that read-out and setting: then B10, with more than 200 nM; and B11, with more than 200 nM; and B12, with more than 200 nM.
The same measure, in the same setting: then B13, with more than 200 nM; and B14, with more than 200 nM.
B15 gave a dissociation constant Kd of more than 200 nM.
The same measure, in the same setting: for B16 the value was more than 200 nM.

The target in another assay is T1, enriched paired helical filament tau protein (ePHF) (human). The assay is described as follows: direct ELISA. The conditions noted are these: remark: other sources report otherwise. Background: ELISA stands for enzyme-linked immunosorbent assay.
Regarding B12, the EC50 (in general, the concentration that produces a half-maximal response) is 0.125 nM. That is a sub-nanomolar value.

The target of the next assay is iPHF (Homo sapiens (Human)), P10636. Put plainly: Octet, antibody on biosensor tips. The conditions noted are these: remark: other sources report otherwise. For orientation: In BLI a coated tip is dipped into the sample, and binding shifts an interference pattern.
Take B12: the dissociation constant (Kd) stood at 2.8 nM. This counts as single-digit nanomolar.
The same measure, in the same setting: for B17 the value was 5.5 nM.

The next assay has as its target T1, enriched paired helical filament tau …. The assay is described as follows: follow up analysis, method not stated. The conditions noted are these: remark: other sources report otherwise.
On to B12, for which the selectivity for ePHF over wild type tau was more than 100 fold.
